What was measured:
[1] = molecular target: α/β TCR/CD3 complex on Jurkat, Clone E6-1 cells (human) (UniProt P07766); test: flow cytometry on Jurkat Clone E6-1 cells, Fab titration 10 µg/ml to 10 ng/ml; AUC of MFI vs log concentration; the reference itself, set to zero
[2] = molecular target: α/β TCR/CD3 complex on Jurkat, Clone E6-1 cells (human) (UniProt P07766); test: flow cytometry on Jurkat Clone E6-1 cells, Fab titration 10 µg/ml to 10 ng/ml; AUC of MFI vs log concentration, gain vs TPP-1374
[3] = molecular target: α/β TCR/CD3 complex on Jurkat, Clone E6-1 cells (human) (UniProt P07766); test: flow cytometry on Jurkat Clone E6-1 cells, Fab titration 10 µg/ml to 10 ng/ml; EC50 of MFI, fold decrease vs TPP-1374

Sequence of UniProt P07766 (P07766 23-207, chain 1 of 4): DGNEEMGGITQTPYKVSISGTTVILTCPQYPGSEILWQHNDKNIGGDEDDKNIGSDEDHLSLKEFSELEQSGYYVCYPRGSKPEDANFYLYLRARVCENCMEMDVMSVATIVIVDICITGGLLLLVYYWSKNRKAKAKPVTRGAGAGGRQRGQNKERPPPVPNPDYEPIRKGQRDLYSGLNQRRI
Sequence of UniProt P07766 (P09693 23-182, chain 2 of 4, further chain): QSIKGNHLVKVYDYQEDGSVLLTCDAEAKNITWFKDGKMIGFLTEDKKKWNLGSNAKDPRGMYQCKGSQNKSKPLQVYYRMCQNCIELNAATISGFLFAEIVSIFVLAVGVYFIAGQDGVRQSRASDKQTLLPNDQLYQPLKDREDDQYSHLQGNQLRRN
Sequence of UniProt P07766 (P04234 22-171, chain 3 of 4, further chain): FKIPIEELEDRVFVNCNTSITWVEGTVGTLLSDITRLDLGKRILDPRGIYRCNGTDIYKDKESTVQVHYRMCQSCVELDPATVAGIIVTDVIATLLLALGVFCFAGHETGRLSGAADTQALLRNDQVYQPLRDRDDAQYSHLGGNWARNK
Sequence of UniProt P07766 (P20963 22-164, chain 4 of 4, further chain): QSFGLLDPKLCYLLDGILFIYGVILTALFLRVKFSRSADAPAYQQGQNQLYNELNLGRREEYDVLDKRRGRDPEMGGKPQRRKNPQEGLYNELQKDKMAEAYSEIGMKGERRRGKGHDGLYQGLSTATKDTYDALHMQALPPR

% gain in binding AUC [1] [%] | % gain in binding AUC [2] [%] | fold decrease in EC50 [3] [fold] | Binder
0 | – | – | TPP-1374, Fab fragment of BMA031 (V36) (Fab, V domains shown) VH: EVQLVQSGAEVKKPGASVKVSCKASGYKFTSYVMHWVRQAPGQGLEWMGYINPYNDVTKYAEKFQGRVTLTSDTSTSTAYMELSSLRSEDTAVHYCARGSYYDYEGFVYWGQGTLVTVSS VL: QIQMTQSPSSLSASVGDRVTITCSATSSVSYMHWYQQKPGKAPKRWIYDTSKLASGVPSRFSGSGSGTDYTLTISSLQPEDAATYYCQQWSSNPLTFGGGTKVEIKR
– | 87 | 2.1 | TPP-1375 Fab fragment (Fab, V domains shown) VH: EVQLVQSGAEVKKPGASVKVSCKASGYKFRSYVMHWVRQAPGQGLEWMGYINPYNDVTKYAEKFQGRVTLTSDTSTSTAYMELSSLRSEDTAVHYCARGSYYDYEGFVYWGQGTLVTVSS VL: QIQMTQSPSSLSASVGDRVTITCSATSSVSYMHWYQQKPGKAPKRWIYDTSKLASGVPSRFSGSGSGTDYTLTISSLQPEDAATYYCQQWSSNPLTFGGGTKVEIKR

— patent publication US20250051445A1
